For twelve substances, logFC.mWT.over.Luc and logFC.mWT.over.Lux results are on record in US20240368668A1, “SUBSTRATES AND BIOMARKERS OF ADAMTS7” (The Broad Institute, Inc., priority 2021, published 2024).

The first assay deals with T1, mouse ADAMTS7 (Mus musculus, UniProt Q68SA9).
T1 construct: Full-length mouse Adamts7 1-1857 (Uniprot Q68SA9, WT or E373Q catalytic mutant); expressed in transfected cells; host or cells: Human Coronary Artery Smooth Muscle Cells (HCA-SMC, Lonza), adenovirus 50 MOI
T1 sequence (Q68SA9 221-1657): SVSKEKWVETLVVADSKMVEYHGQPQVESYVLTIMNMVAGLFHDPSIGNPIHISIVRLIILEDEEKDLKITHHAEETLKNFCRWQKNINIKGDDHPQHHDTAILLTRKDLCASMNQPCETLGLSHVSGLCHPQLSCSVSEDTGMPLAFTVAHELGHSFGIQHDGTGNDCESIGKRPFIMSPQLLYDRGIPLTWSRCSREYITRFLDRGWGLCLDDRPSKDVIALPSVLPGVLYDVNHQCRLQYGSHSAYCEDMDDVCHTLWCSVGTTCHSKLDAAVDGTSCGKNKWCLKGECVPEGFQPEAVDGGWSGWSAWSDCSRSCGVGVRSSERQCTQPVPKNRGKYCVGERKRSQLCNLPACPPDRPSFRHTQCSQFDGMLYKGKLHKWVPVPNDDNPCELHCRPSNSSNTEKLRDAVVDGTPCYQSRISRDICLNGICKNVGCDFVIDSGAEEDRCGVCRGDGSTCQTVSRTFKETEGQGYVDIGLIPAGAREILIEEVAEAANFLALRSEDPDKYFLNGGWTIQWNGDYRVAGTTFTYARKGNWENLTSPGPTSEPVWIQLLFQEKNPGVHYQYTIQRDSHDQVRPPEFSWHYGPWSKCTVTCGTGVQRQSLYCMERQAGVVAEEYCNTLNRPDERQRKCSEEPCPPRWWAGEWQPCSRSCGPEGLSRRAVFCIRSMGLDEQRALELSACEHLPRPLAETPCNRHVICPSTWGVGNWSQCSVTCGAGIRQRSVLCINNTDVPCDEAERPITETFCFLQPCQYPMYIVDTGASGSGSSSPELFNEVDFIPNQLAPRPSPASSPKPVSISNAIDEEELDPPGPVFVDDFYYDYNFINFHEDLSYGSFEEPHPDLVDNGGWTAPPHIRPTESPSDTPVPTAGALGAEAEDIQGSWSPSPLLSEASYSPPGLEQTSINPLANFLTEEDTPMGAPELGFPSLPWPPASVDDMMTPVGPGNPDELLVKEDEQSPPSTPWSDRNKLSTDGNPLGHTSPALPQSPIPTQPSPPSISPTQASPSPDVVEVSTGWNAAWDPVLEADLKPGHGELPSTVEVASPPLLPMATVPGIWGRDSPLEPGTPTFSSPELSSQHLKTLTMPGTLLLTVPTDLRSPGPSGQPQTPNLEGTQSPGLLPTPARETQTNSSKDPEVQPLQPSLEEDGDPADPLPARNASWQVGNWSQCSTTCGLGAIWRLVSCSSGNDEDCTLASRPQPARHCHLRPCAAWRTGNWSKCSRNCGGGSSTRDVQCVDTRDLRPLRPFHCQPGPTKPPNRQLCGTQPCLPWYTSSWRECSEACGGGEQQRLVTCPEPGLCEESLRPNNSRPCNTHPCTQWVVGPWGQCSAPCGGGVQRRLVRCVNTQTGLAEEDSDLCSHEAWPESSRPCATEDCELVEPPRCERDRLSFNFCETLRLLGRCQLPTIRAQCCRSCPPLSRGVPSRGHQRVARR
Briefly: TMT10 TAILS N-terminomics, SMC2 experiment (process replicates, trypsin/AspN digest). The conditions noted are these: SMC2_TAILS HC; log fold change of N-terminal peptide, Ad-mADAMTS7 WT over Luc. Type of assay: cell-based. The essentials:
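Full-length mouse ADAMTS7 (WT or E373Q mutant, C-terminal 3xFLAG) or luciferase was transduced via adenovirus, 50 MOI, into HCA-SMC (SMC1, SMC2) or HUVEC. SMC1: pooled media, technical triplicates 400 ug; SMC2: process triplicates 300 ug; HUVEC: process triplicates 200 ug, bFGF2 10 ng/ml.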
“VCAN_3367 (FKNSSSAK; listed as Homo sapiens)” showed a logFC.mWT.over.Luc of 0.79. Take “VIM_276 (YESVAAKNLQ; listed as Homo sapiens)”: the logFC.mWT.over.Luc turned out to be 0.88.

Regarding “VIM_322 (QVQSLTCEV; listed as Homo sapiens)”, the logFC.mWT.over.Luc was 1.01. Substance “ZSCAN4_25 (FQQSQGPAVQR; listed as Homo sapiens)” yielded a logFC.mWT.over.Luc of 2.79.

Staying with this assay, now noted: log fold change, ADAMTS7 WT over luciferase.
The substance “TGFBI_534 (EGVYTVFAPTNEAFR; listed as Homo sapiens)” displayed a logFC.mWT.over.Lux of 0.91. “TG_1017 (GASALLR; listed as Homo sapiens)” had a logFC.mWT.over.Lux of 4.08. “THBS1_972 (QNDPNWVVR; listed as Homo sapiens)” gave a logFC.mWT.over.Lux of 3.55. On the same count and under the same terms, for “TLN1_1501 (HTSALCNSCR; listed as Homo sapiens)” the value was 1.31. Substance “TMEM132A_52 (LLDAPEHFR; listed as Homo sapiens)” showed a logFC.mWT.over.Lux of 2.65.

Take “VASN_138 (HIQPGAFDTLDR; listed as Homo sapiens)”: the logFC.mWT.over.Lux came to 1.63. Substance “VASP_229 (AIAGAKLR; listed as Homo sapiens)” showed a logFC.mWT.over.Lux of 4.48. As for “VIM_433 (LVDTHSKR; listed as Homo sapiens)”, the logFC.mWT.over.Lux is on record as 2.91.
